Source: article PMC5095173, “Disulfide-activated protein kinase G Iα regulates cardiac diastolic relaxation and fine-tunes the Frank–Starling response” (Nature Communications, 2016)

B1: 1-phosphatidylinositol 4,5-bisphosphate phosphodiesterase gamma-1: PKGIα substrate, phospho site S1233 (protein, UniProt P10686 2-1290, looked up)
1-phosphatidylinositol …: AGVGTPCANGCGPSAPSEAEVLHLCRSLEVGTVMTLFYSKKSQRPERKTFQVKLETRQITWSRGADKIEGSIDIREIKEIRPGKTSRDFDRYQEDPAFRPDQSHCFVILYGMEFRLKTLSLQATSEDEVNMWIKGLTWLMEDTLQAATPLQIERWLRKQFYSVDRNREDRISAKDLKNMLSQVNYRVPNMRFLRERLTDFEQRSGDITYGQFAQLYRSLMYSAQKTMDLPFLETNTLRTGERPELCQVSLSEFQQFLLEYQGELWAVDRLQVQEFMLSFLRDPLREIEEPYFFLDELVTFLFSKENSVWNSQLDAVCPETMNNPLSHYWISSSHNTYLTGDQFSSESSLEAYARCLRMGCRCIELDCWDGPDGMPVIYHGHTLTTKIKFSDVLHTIKEHAFVASEYPVILSIEDHCSIAQQRNMAQHFRKVLGDTLLTKPVDIAADGLPSPNQLKRKILIKHKKLAEGSAYEEVPTSVMYSENDISNSIKNGILYLEDPVNHEWYPHYFVLTSSKIYYSEETSSDQGNEDEEEPKEASGSTELHSSEKWFHGKLGAGRDGRHIAERLLTEYCIETGAPDGSFLVRESETFVGDYTLSFWRNGKVQHCRIHSRQDAGTPKFFLTDNLVFDSLYDLITHYQQVPLRCNEFEMRLSEPVPQTNAHESKEWYHASLTRAQAEHMLMRVPRDGAFLVRKRNEPNSYAISFRAEGKIKHCRVQQEGQTVMLGNSEFDSLVDLISYYEKHPLYRKMKLRYPINEEALEKIGTAEPDYGALYEGRNPGFYVEANPMPTFKCAVKALFDYKAQREDELTFTKSAIIQNVEKQDGGWWRGDYGGKKQLWFPSNYVEEMINPAILEPEREHLDENSPLGDLLRGVLDVPACQIAIRPEGKNNRLFVFSISMPSVAQWSLDVAADSQEELQDWVKKIREVAQTADARLTEGKMMERRKKIALELSELVVYCRPVPFDEEKIGTERACYRDMSSFPETKAEKYVNKAKGKKFLQYNRLQLSRIYPKGQRLDSSNYDPLPMWICGSQLVALNFQTPDKPMQMNQALFMAGGHCGYVLQPSTMRDEAFDPFDKSSLRGLEPCVICIEVLGARHLPKNGRGIVCPFVEIEVAGAEYDSTKQKTEFVVDNGLNPVWPAKPFHFQISNPEFAFLRFVVYEEDMFSDQNFLAQATFPVKGLKTGYRAVPLKNNYSEDLELASLLIKIDIFPAKENGDLSPFSGTSLRERASDASSQLFHVRAREGSFEARYQQPFEDFRISQEHLADHFDSRERRAPRRTRVNGDNRL
modifications: phosphorylated at S1233
B2: Polymerase I and transcript release factor: PKGIα substrate, phospho sites T304 (r27) and S302 (r28) (protein, UniProt P85125 1-392, looked up)
Caveolae-associated protein 1: MEDVTLHIVERPYSGYPDASSEGPEPTPGEARATEEPSGTGSDELIKSDQVNGVLVLSLLDKIIGAVDQIQLTQAQLEERQAEMEGAVQSIQGELSKLGKAHATTSNTVSKLLEKVRKVSVNVKTVRGSLERQAGQIKKLEVNEAELLRRRNFKVMIYQDEVKLPAKLSVSKSLKESEALPEKEGDELGEGERPEEDAAAIELSSDEAVEVEEVIEESRAERIKRSGLRRVDDFKKAFSKEKMEKTKVRTRENLEKTRLKTKENLEKTRHTLEKRMNKLGTRLVPVERREKLKTSRDKLRKSFTPDHVVYARSKTAVYKVPPFTFHVKKIREGEVEVLKATEMVEVGPDDDEVGAERGAETDLLRGSSPDVHTLLEITEESDAVLVDKSDSD
modifications: phosphorylated at T304/S302
B3: Myosin light chain kinase 3: PKGIα substrate, phospho site S155 (protein, UniProt E9PT87 1-786, looked up)
Myosin light chain kinase 3: MSGVSEEDPEGLGPQGLPALGGACLVTVDKKLNVLTEKVDRLLHFQEDVTEKLQCVCQGMDHLEQGLHRLEASQELGLAGPGSTSPAAAQAAWPEVLELVRAVRQEGAQHGARLEALFKMVVAVDRAITLVGSTIQNSKVDDFILQGTVPWRKGSLADGPEENKEQAEVAGVKPKHVLNTGSVQAATSRALWEESQKQDTPVGTVEGLPLIIDTSLKGADLTQAGASLRQGVEALDPGQEPPPTEAESRLPALASEDTGTTLELSVAIDRISEVLTSLRMSQSAGEGTSSSKPDCSEPGPQPLGPLTTDSDIHSDEGLPRISVRMREMTTPEELFETQGGSPIGSAEAPGPGTVLEDQIPKGARPFPPLPKRSCNNGGASAEEATGPGAEPIRGPSLVTRDWRDEPVGTTDLQQGRDPGAVSPEPGKDHAAQGPGRTEAGRRVSSAAEAAIVVLDDSAAPPAPFEHRVVSIKDTLISTSYTVSQHEVLGGGRFGQVHRCTERSTGLALAAKIIKVKNIKDREDVKNEINIMNQLSHVNLIQLYDAFESKNSFTLIMEYVDGGELFDRITDEKYHLTELDVVLFTRQICEGVHYLHQHYILHLDLKPENILCVSQTGHQIKIIDFGLARRYKPREKLKVNFGTPEFLAPEVVNYEFVSFPTDMWSVGVITYMLLSGLSPFLGETDAETMNFIVNCSWDFDADTFKGLSEEAKDFVSRLLVKEKSCRMSATQCLKHEWLNHLIAKASGSNVRLRSQLLLQKYMAQRKWKKHFHVVTAVNRLRKFPTCP
modifications: phosphorylated at S155
B4: Trifunctional enzyme subunit beta, mitochondrial: PKGIα substrate, phospho site S198 (protein, UniProt Q60587 35-475, looked up)
Trifunctional enzyme subunit …: SAPAVQTKSKKTLAKPNLKNIVVVEGVRIPFLLSGTSYKDLMPHDLARAALSGLLYRTNIPKDVVDYIIFGTVIQEVKTSNVAREAALGAGFSDKTPAHTVTMACISSNQAMTTAVGLIASGQCDVVVAGGVELMSDVPIRHSRNMRKMMLDLNKAKTLAQRLSLLTKFRLNFLSPELPAVAEFSTNETMGHSADRLAAAFAVSRMEQDKYALRSHSLAKKAQDEGHLSDIVPFKVPGKDTVSKDNGIRPSSLEQMAKLKPAFIKPYGTVTAANSSFLTDGASAMLIMSEDRALAMGYKPKAYLRDFIYVSQDPKDQLLLGPTYATPKVLEKAGLTMNDIDAFEFHEAFSGQILANFKAMDSDWFAQNYMGRKTKVGAPPLEKFNIWGGSLSLGHPFGATGCRLVMAAANRLRKDGGQYALVAACAAGGQGHAMIVEAYPK
modifications: phosphorylated at S198
B5: Protein NDRG2: PKGIα substrate, phospho site S332 (protein, UniProt Q9QYG0 2-371, looked up)
Protein NDRG2: AELQEVQITEEKPLLPGQTPETAKEAELAARILLDQGQTHSVETPYGSVTFTVYGTPKPKRPAIFTYHDVGLNYKSCFQPLFRFGDMQEIIQNFVRVHVDAPGMEEGAPVFPLGYQYPSLDQLADMIPCILQYLNFSTIIGVGVGAGAYILSRYALNHPDTVEGLVLINIDPNAKGWMDWAAHKLTGLTSSIPDMILGHLFSQEELSGNSELIQKYRGIIQHAPNLENIELYWNSYNNRRDLNFERGGETTLKCPVMLVVGDQAPHEDAVVECNSKLDPTQTSFLKMADSGGQPQLTQPGKLTEAFKYFLQGMGYMASSCMTRLSRSRTASLTSAASIDGSRSRSRTLSQSSESGTLPSGPPGHTMEVSC
modifications: phosphorylated S332

These molecules were tested on PKGIα (analogue-sensitive M438G), disulfide-activated (assay: Chemical genetic phosphoproteomic screen, disulfide-activated PKGIα M438G versus unactivated control). Conditions: disulfide-activated PKGIα M438G vs basal; 1 h, 30 °C, pH 7.5, rat heart homogenate; label-free LC–MS/MS; n=4; * P<0.05 Dunnett: only phospholamban S16.
Assay type: biochemical, human PKGIα; substrates in rat heart homogenate
Text: (§1) We employed a chemical genetic method[18] to identify direct substrates of cGMP-activated PKGIα and disulfide bond-activated PKGIα in heart tissue. This method involves mutation of the ATP binding-site of the kinase of interest so that it can accept a ‘bulky' N6-alkylated ATP analogue for example, N6^−phenylethyl ATP. An oxygen atom on the γ phosphate is also replaced with a sulfur atom—giving an N6-alkylated ATPγS analogue—so that the mutant kinase catalyses the transfer of a thiophosphate group (–PO3S^3−) to its substrates instead of a phosphate. The thiophosphate group is nucleophilic, providing a basis for substrates of the analogue-sensitive kinase to be purified by a ‘covalent capture' protocol. LC–MS/MS allows identification of the substrate and localization of the phosphorylation site. Thiophosphorylated proteins can also be detected with a thiophosphate ester-specific antibody. Analogue-sensitive mutants of PKGIα and PKGIα C42S (which cannot form the activating intermolecular disulfide bond) were generated by mutating Met438 in the ATP-binding domain to Gly. This mutation was chosen based on a previous study where an analogue-sensitive mutant of the catalytic subunit of PKA—which shares sequence homology with PKGIα—was engineered. Detailed protocols are given below.
(§2) A pCDNA3 expression vector encoding human FLAG-tagged PKGIα (ref. [41]) underwent site-directed mutagenesis to generate constructs for untagged WT, C42S, M438G and C42S/M438G PKGIα. Mutations were introduced using the QuikChange II Site-Directed Mutagenesis Kit (Agilent) according to the manufacturer's instructions. Expression and purification of the PKGIα mutants was performed according to a published method[42] as follows: suspension FreeStyle 293-F cells (ThermoFisher Scientific) were transfected with the appropriate PKGIα construct using the stable cationic polymer polyethyleneimine (PEI) as a transfection reagent. After ∼72 h cells were harvested by centrifugation (400g; room temperature; 15 min), re-suspended in ice cold lysis buffer (25 mM sodium phosphate buffer pH 6.8; 10 mM ethylenediaminetetraacetic acid (EDTA); 100 mM NaCl; 10 mM benzamidine hydrochloride; and 10 mM dithiothreitol (DTT)) and frozen in liquid N2. Cells were lysed by three freeze (liquid N2)-thaw (37 °C) cycles and the lysate was clarified by centrifugation at 140,000g and 4 °C for 30 min. The soluble protein fraction was loaded onto a pre-equilibrated 8-(2-aminoethylamino)adenosine-3′, 5′-cyclic monophosphate column (8-AEA-cAMP agarose; BioLog, Germany) followed by washing with 20 column volumes of lysis buffer. The column was further washed with lysis buffer +3 M NaCl (5 column volumes) and PKGIα was then eluted with lysis buffer +150 mM NaCl and 500 μM cAMP. Removal of cAMP and buffer exchange was achieved by extensive dialysis against 25 mM sodium phosphate buffer pH 6.8, 2 mM EDTA and 100 mM NaCl. For ITC analysis, WT PKGIα was incubated with 10 mM lipoic acid for 2 h on ice to obtain ∼100% disulfide dimer (confirmed by SDS-PAGE). Oxidized WT or C42S PKGIα was further purified by size exclusion chromatography using a HiLoad 16/600 Superdex 200 pg column (GE Healthcare) with 50 mM sodium phosphate buffer pH 7.4 and 100 mM NaCl. Proteins were concentrated using Amicon Ultra centrifugal filter devices (Merck Millipore). DTT was absent in storage buffers so that the activating disulfide bond would not be reduced and so that the PKGIα M438G mutant would be oxidized to disulfide dimer in the presence of air (confirmed by SDS-PAGE). Protein concentration was determined by Pierce BCA assay (ThermoFisher) and enzyme activity was confirmed using the Omnia kinase assay kit (ThermoFisher).
(§3) Male Wistar rats (9–10 weeks; body weight 300–330 g) were euthanized by intraperitoneal injection of sodium pentobarbitone (200 mg kg^−1) with heparin (500 USP units). […]

Row | Molecule | Log2 fold change in phosphorylation, Disulfide versus control
1 | B1 | 1.82
2 | B2 | 1.30
3 | B3 | 1.13
4 | B4 | 0.04
5 | B5 | 1.91

Same assay, conditions: phospho site S302 (second site of this protein); n=4; not significant

Row | Molecule | Log2 fold change in phosphorylation, Disulfide versus control
6 | B2 | 1.32

Each molecule was assayed on PKGIα (analogue-sensitive C42S/M438G), cGMP-activated (assay: Chemical genetic phosphoproteomic screen, cGMP-activated PKGIα C42S/M438G versus unactivated control). Conditions: PKGIα C42S/M438G + 100 μM cGMP vs basal; 1 h, 30 °C, pH 7.5, rat heart homogenate; label-free LC–MS/MS; n=4; * P<0.05 Dunnett: all values except phospholamban S16.
Assay type: biochemical, human PKGIα; substrates in rat heart homogenate
Text: as §1, §2, §3

Row | Molecule | Log2 fold change in phosphorylation, cGMP versus control
7 | B1 | 4.50*
8 | B2 | 3.05*
9 | B3 | 3.16*
10 | B4 | 3.44*
11 | B5 | 3.42*

Same assay, conditions: phospho site S302 (second site of this protein); n=4; * P<0.05

Row | Molecule | Log2 fold change in phosphorylation, cGMP versus control
12 | B2 | 3.16*
